Test results published in IntAct's records for PubMed 31175292.

B1: Signal transducer and activator of transcription 5B (Homo sapiens), P51692 (parent)
chain: MAVWIQAQQLQGEALHQMQALYGQHFPIEVRHYLSQWIESQAWDSVDLDNPQENIKATQLLEGLVQELQKKAEHQVGEDGFLLKIKLGHYATQLQNTYDRCPMELVRCIRHILYNEQRLVREANNGSSPAGSLADAMSQKHLQINQTFEELRLVTQDTENELKKLQQTQEYFIIQYQESLRIQAQFGPLAQLSPQERLSRETALQQKQVSLEAWLQREAQTLQQYRVELAEKHQKTLQLLRKQQTIILDDELIQWKRRQQLAGNGGPPEGSLDVLQSWCEKLAEIIWQNRQQIRRAEHLCQQLPIPGPVEEMLAEVNATITDIISALVTSTFIIEKQPPQVLKTQTKFAATVRLLVGGKLNVHMNPPQVKATIISEQQAKSLLKNENTRNDYSGEILNNCCVMEYHQATGTLSAHFRNMSLKRIKRSDRRGAESVTEEKFTILFESQFSVGGNELVFQVKTLSLPVVVIVHGSQDNNATATVLWDNAFAEPGRVPFAVPDKVLWPQLCEALNMKFKAEVQSNRGLTKENLVFLAQKLFNNSSSHLEDYSGLSVSWSQFNRENLPGRNYTFWQWFDGVMEVLKKHLKPHWNDGAILGFVNKQQAHDLLINKPDGTFLLRFSDSEIGGITIAWKFDSQERMFWNLMPFTTRDFSIRSLADRLGDLNYLIYVFPDRPKDEVYSKYYTPVPCESATAKAVDGYVKPQIKQVVPEFVNASADAGGGSATYMDQAPSPAVCPQAHYNMYPQNPDSVLDTDGDFDLEDTMDVARRVEELLGRPMDSQWIPHAQS

Variants of: B1
Conditions: with abl1_human ABL1, P00519
Chain of abl1_human ABL1, P00519 (P00519 whole entry): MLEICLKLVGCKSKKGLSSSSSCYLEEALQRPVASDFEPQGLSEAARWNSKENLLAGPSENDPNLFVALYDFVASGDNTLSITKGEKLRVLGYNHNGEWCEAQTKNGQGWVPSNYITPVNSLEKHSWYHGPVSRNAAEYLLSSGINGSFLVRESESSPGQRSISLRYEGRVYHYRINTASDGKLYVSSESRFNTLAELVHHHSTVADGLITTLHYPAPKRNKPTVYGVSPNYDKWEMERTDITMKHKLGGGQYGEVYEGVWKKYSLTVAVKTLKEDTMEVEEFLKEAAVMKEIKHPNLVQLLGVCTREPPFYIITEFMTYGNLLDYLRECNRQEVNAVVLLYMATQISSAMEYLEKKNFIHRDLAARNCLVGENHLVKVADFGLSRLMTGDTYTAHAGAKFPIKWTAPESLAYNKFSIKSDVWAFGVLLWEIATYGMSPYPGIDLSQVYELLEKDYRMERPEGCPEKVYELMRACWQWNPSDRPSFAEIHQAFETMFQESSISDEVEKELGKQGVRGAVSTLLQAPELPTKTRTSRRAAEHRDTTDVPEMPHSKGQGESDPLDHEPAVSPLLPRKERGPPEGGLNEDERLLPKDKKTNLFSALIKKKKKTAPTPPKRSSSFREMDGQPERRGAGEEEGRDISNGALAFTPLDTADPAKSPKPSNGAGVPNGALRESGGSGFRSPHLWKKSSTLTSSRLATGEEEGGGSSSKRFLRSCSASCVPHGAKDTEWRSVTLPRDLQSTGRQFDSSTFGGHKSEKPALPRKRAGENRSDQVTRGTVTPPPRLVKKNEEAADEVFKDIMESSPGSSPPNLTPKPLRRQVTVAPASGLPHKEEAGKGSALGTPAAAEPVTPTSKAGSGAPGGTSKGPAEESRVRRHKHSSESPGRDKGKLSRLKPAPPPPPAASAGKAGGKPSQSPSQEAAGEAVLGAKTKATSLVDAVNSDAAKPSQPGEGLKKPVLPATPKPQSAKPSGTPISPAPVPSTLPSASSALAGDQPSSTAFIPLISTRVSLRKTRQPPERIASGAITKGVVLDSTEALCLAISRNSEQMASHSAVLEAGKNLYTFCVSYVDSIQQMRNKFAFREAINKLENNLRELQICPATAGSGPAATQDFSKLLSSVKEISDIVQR

Variant	effect of a mutation on the interaction
N642H	with no effect
